T1: GAL4 activation domain-harpin fusion (hrpN in prey vector pGAD GH) (yeast; Erwinia amylovora, UniProt Q01099 1-403)
T1 construct: range 1-403; also called hrpN-pGAD GH
T1 sequence: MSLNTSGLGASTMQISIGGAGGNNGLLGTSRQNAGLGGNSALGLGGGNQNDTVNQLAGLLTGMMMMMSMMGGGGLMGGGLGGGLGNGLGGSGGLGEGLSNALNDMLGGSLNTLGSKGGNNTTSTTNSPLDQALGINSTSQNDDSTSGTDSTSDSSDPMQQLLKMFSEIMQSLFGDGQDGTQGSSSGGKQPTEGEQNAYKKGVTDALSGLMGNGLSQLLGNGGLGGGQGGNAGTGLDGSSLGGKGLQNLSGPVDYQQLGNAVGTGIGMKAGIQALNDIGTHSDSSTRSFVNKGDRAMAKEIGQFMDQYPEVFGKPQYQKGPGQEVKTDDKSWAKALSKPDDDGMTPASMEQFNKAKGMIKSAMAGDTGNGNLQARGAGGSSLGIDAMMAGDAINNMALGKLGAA

T2: GAL4 activation domain-AtHrBP1p fusion (longest 1 kb cDNA insert in pGAD 10) (yeast; Arabidopsis thaliana, UniProt Q9LW57 1-284)
T2 construct: Yeast two-hybrid prey; also called AtHrBP1-AD fusion prey
T2 sequence: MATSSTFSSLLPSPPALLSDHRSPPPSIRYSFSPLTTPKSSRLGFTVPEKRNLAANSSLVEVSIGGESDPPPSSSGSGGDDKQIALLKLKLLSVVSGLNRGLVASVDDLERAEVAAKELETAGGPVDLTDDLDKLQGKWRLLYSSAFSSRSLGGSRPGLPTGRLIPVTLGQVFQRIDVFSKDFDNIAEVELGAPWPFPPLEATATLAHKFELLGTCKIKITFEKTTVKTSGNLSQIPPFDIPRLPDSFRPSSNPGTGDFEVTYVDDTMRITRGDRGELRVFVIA

T3: LexA-AtHrBP1p fusion (AtHrBP1 in bait vector pVJL11) (Arabidopsis thaliana, UniProt Q9LW57 1-284)
T3 construct: Yeast two-hybrid bait, opposite orientation; also called AtHrBP1-pVJL11; AtHrBP1p fused with the DNA-BD; not shown: prokaryotic LexA protein (DNA-BD encoded in bait vector pVJL11)
T3 sequence: T2 sequence

T4: LexA-harpin fusion (HrpN of Erwinia amylovora in bait vector pVJL11) (Erwinia amylovora, UniProt Q01099 1-403)
T4 construct: range 1-403; also called HrpN-pVJL11; lexA-harpin fusion protein; not shown: prokaryotic LexA protein (DNA-BD encoded in bait vector pVJL11)
T4 sequence: T1 sequence

T5: LexA fused to harpin 137-180 amino acids (Erwinia amylovora, UniProt Q01099 137-180)
T5 construct: also called harpin fragment that contains the second HR domain; not shown: prokaryotic LexA protein (bait vector)
T5 chain (looked up): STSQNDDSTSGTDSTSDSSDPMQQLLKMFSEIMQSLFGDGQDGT

T6: LexA fused to harpin 210-403 amino acids (Erwinia amylovora, UniProt Q01099 210-403)
T6 construct: range 210-403; not shown: prokaryotic LexA protein (bait vector)
T6 sequence: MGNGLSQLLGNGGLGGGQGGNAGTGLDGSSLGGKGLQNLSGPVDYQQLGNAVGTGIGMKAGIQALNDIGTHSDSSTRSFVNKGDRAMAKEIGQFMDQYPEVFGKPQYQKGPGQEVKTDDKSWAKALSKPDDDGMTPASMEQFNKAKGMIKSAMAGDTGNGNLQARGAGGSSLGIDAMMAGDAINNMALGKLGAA

B1: LexA alone (empty bait vector pVJL11) (other)
chain: MKALTARQQEVFDLIRDHISQTGMPPTRAEIAQRLGFRSPNAAEEHLKALARKGVIEIVSGASRGIRLLQEEEEGLPLVGRVAAGEPLLAQQHIEGHYQVDPSLFKPNADFLLRVSGMSMKDIGIMDGDLLAVHKTQDVRNGQVVVARIDDEVTVKRLKKQGNKVELLPENSEFKPIVVDLRQQSFTIEGLAVGVIRNGDWL
notes: Control
B2: GAL4 activation domain alone (empty prey vector pGAD GH) (other)
chain: ANFNQSGNIADSSLSFTFTNSSNGPNLITTQTNSQALSQPIASSNVHDNFMNNEITASKIDDGNNSKPLSPGWTDQTAYNAFGITTGMFNTTTMDDVYNYLFDDEDTPPNPKKE
notes: Control
B3: GAL4 activation domain-rice HrBP1p (R6p) fusion (receptor)
chain: VAALKVKLLSAVSGLNRGLAGSQEDLDRADAAARELEAAAGGGPVDLERDVDKLQGRWRLVYSSAFSSRTLGGSRPGPPTGRLLPITLGQVFQRIDVVSKDFDNIVDVELGAPWPLPPVELTATLAHKFEIIGTSSIKITFDKTTVKTKGNLSQLPPLEVPRIPDNLRPPSNTGSGEFEVTYLDGDTRITRGDRGELRVFVIS
notes: Partial cDNA clone from a yeast two-hybrid screen with harpin as bait; not full length

Experiments:
[1] = biological target: T1, GAL4 activation domain-harpin fusion …; test: yeast two-hybrid, lacZ and HIS3 reporters
[2] = biological target: T2, GAL4 activation domain-AtHrBP1p fusion …; test: yeast two-hybrid, lacZ and HIS3 reporters
[3] = biological target: T3, LexA-AtHrBP1p fusion (AtHrBP1 in bait …); test: yeast two-hybrid, lacZ and HIS3 reporters
[4] = biological target: T4, LexA-harpin fusion (HrpN of Erwinia …); test: yeast two-hybrid, lacZ and HIS3 reporters
[5] = biological target: T5, LexA fused to harpin 137-180 amino acids; test: yeast two-hybrid, harpin fragment as bait
[6] = biological target: B1; test: yeast two-hybrid, lacZ and HIS3 reporters
[7] = biological target: T6, LexA fused to harpin 210-403 amino acids; test: yeast two-hybrid, lacZ and HIS3 reporters
[8] = biological target: T4, LexA-harpin fusion (HrpN of Erwinia …); test: yeast two-hybrid, harpin as bait

B1
binding result [1]: no binding
binding result [2]: no binding

B2
binding result [3]: no binding
binding result [4]: no binding

B3
binding result [5]: binds
binding result [6]: no binding
binding result [7]: no binding
binding result [8]: binds

Source: patent US20030177526A1 (PLANT HEALTH CARE, published 2003)
